Data set [1] addresses T1, SPase (Rhodopirellula baltica, UniProt Q7UIS9).
T1 sequence (Q7UIS9 1-571): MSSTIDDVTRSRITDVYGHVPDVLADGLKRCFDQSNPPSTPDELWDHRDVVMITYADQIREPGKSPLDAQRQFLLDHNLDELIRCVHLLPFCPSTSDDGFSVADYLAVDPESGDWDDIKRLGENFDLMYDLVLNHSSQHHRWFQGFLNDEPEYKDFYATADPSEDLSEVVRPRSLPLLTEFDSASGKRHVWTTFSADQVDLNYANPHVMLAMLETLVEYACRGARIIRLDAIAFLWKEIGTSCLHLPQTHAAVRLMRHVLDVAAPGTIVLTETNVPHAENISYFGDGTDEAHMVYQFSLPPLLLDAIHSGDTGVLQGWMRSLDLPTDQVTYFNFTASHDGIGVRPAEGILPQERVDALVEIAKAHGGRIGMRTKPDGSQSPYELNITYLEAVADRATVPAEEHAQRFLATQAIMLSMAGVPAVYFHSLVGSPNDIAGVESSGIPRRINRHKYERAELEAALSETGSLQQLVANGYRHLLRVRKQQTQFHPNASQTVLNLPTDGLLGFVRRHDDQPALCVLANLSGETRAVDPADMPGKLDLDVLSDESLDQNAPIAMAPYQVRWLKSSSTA
As to the kind of experiment: turnover to fructose and glucose-1-phosphate. The conditions noted are these: recombinant enzyme. In kind it is cell-based.

Data set [2] deals with the molecule itself. As to the kind of experiment: SEC. In general terms: In gel filtration, larger molecules generally elute earlier.
Data set [3] concerns the molecule itself. As to the kind of experiment: SEC. This is another data set of the same source.

Broadly, the stoichiometry N is a count of units in the complex or per binding partner.

Where two headings read alike, the source gives them in different places.

For the molecule `OC[C@H]1O[C@@](CO)(O[C@H]2O[C@H](CO)[C@@H](O)[C@H](O)[C@H]2O)[C@@H](O)[C@@H]1O` [sucrose], the “turnover to fructose and glucose-1-phosphate” value in data set [1] was “it catalyzed the conversion of sucrose to fructose and glucose-1-phosphate”.

B1: glucosyl-3-phosphoglycerate synthase (GpgS) from Rhodopirellula baltica, recombinant 398-amino acid enzyme (enzyme)
chain: PDFYQHDMITTIHDLRSAKLDNLESMLRESTRNHDIGLVLPVTASDMRAEPFDVIVRELAQADYIASIVVSLGVAPDQSDYDETCAKIAPLGDRAKVLWTDGPEVQGLYNELIESGIDVSVPGKGRSVWTAFGYLLDDPDIETFVLHDCDIVDYDRQLLTRLCLPMVHPGLDFEFCKAYYARVTDRMHGRVVRLLVAPLLRALMQCFPENQFVRFLGNFRYPLSGEFSLTRNLARTNRVASDWGLEVGTLADVYRNTSHKRVCQVDLARLYEHKHQTLAVDQPSSGLIKMALDILTTIYRTLASQGIVFGESTFVTLRASFLRIAQDCIRQYAADARVNSLKYDRHSEEMAIEAFAQCVTQAGEIFAADPSGNPSIPNWTRVRAAFPDFTSRLRETVK
Turning to B1, in data set [2], the “stoichiometry N” value was 5.

B2: mannosylglucosyl-3-phosphoglycerate synthase (MggA) from Rhodopirellula baltica, recombinant (enzyme)
chain: MKISAMKILIVHCHFERGGVTQVVDNHVHCLQGSDEIDEVALVSGPRQSGLQETTRSSASIWRIASLEYDSLRDTSLNVDEQAQNDKQAQHTAREIDERCRQAGWTRQETVVHWHNHSLGKNAASPLVIKHLADFGYSCLLQIHDFAEDQRPQNWAYLKQSHGCEKASELDAILYPHGDRLSYATLTTGDAETLVQFGIHRSRVDVLPNSVRLPTDELPEFEVATHKVQRAFDLPADFRWMLYPVRGIRRKNLGEFLLMCQLAGRPTIGAMTLMPDTPMEKRSYERWQAVAERCVENVVFNAAHHEDIQFVDNLSAASVVVSSSVAEGFGMVFLEPWLASRSVVARNLPGVTGDFINHGMRLEHLYDAVQIPGSHSWLTEANRQFQNAKTDAWKDVRRDVETALSPSASDQSISDANEWIDFARLTPAMQIEVLVRFNTDSGFAKEVRDRNAALCDALVTDARPEIIDYNRNIVAANFGPENQKQQLLNAYRKAISNESIPGTGVQNDQTMLELVENSRPFYPCRVEQLD
On to B2, for which the “stoichiometry N” value in data set [3] worked out at 2.
